# T1: mPOT1a_N (mouse, UniProt Q91WC1 1-300)
# T1 sequence: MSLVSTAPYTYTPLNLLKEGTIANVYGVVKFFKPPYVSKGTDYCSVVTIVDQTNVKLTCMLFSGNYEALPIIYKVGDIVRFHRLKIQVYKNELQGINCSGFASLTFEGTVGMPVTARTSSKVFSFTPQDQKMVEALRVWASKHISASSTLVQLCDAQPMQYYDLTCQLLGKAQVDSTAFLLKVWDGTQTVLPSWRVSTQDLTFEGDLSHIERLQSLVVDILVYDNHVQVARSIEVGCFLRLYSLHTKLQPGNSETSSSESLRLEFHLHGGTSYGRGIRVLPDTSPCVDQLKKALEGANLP
# Biological target: T1, mPOT1a_N
# Assay: EMSA
binder,measurement,value
TTAGGGTTAGGG (ssDNA) [(TTAGGG)2],binding result,no binding

# Source: article PMC2794166
